Measured values reported in the supplement of paper PMC7125110.
± gives the standard error. For part of these data: This sample holds only a part of the variants without activity.

B1: glmS ribozyme (parent)
chain: AUAAAAGCGCCAGAACUACAGAAAUGUAGUUGACGAGGAGGAGGUUUAUCGAAUUUUCGGCGGAUGCCUCCAAA

How the values were obtained:
Details in all cases: with glucosamine-6-phosphate
[1] = variants of: B1; assay: kcat; higher = faster cleavage; RNA array
Procedure, shortened: (§1)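 Weighted Michaelis–Menten fits across concentrations supplied kcat and KM, based on kobs from one- or two-exponential decay fits to normalised per-tile medians. The data came from barcoded ribozyme variants transcribed in situ by E. coli RNA polymerase on sequenced MiSeq chips and tracked at 37 °C by a hybridised Cy3 probe. Glucosamine-6-phosphate (40 μM to 10 mM) in HEPES/KCl/Mg(OAc)2 buffer was flowed in.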

[2] = variants of: B1; assay: KM; higher = weaker cofactor use; RNA array
Procedure, shortened: as §1

[3] = variants of: B1; assay: self-cleavage kobs at 640 uM GlcN6P; higher = faster cleavage; RNA array
Procedure, shortened: as §1

[4] = variants of: B1; assay: self-cleavage kobs at 2500 uM GlcN6P; higher = faster cleavage; RNA array
Procedure, shortened: as §1

[5] = variants of: B1; assay: self-cleavage kobs at 10000 uM GlcN6P; higher = faster cleavage; RNA array
Procedure, shortened: as §1

[6] = variants of: B1; assay: self-cleavage kobs at 40 uM GlcN6P; higher = faster cleavage; RNA array
Procedure, shortened: as §1

[7] = variants of: B1; assay: self-cleavage kobs at 160 uM GlcN6P; higher = faster cleavage; RNA array
Procedure, shortened: as §1

Variant	kcat [1] [s⁻¹]	KM [2] [µM]	self-cleavage kobs at 640 uM GlcN6P [3] [s⁻¹]	self-cleavage kobs at 2500 uM GlcN6P [4] [s⁻¹]	self-cleavage kobs at 10000 uM GlcN6P [5] [s⁻¹]	self-cleavage kobs at 40 uM GlcN6P [6] [s⁻¹]	self-cleavage kobs at 160 uM GlcN6P [7] [s⁻¹]
C11A U30G	0.000664 ± 7.4e-05	6140 ± 920	6.39e-05 ± 1.1e-05	0.000172 ± 5.6e-05	0.000422 ± 9.6e-05		
A12C U69C	0.0042 ± 0.0012	1520 ± 630	0.000885 ± 0.0002	0.00295 ± 0.00069	0.00396 ± 0.00074	0.000133 ± 2.3e-05	0.000486 ± 0.00013
A12C U57A	0.000102 ± 2.4e-05		5.75e-05 ± 1.5e-05	6.14e-05 ± 1.2e-05	0.000113 ± 1.9e-05		
G29U U47G	0.000866 ± 0.00021	1600 ± 640	0.000215 ± 3.4e-05	0.000515 ± 0.00015	0.000787 ± 0.00012		0.00011 ± 2.1e-05
C16A G40A	0.000202 ± 6.3e-05			0.000155 ± 2.1e-05	0.000154 ± 2.9e-05		
A14C U57C	5.66e-05 ± 5.7e-07	1390 ± 73		3.68e-05 ± 1.3e-05	4.96e-05 ± 7.4e-06	< 1e-05	
A48C A53C	9.8e-05 ± 1.5e-05	4010 ± 1400		3.99e-05 ± 1.2e-05	6.89e-05 ± 1.7e-05		
G29U A48U	4.34e-05 ± 5.3e-06			4.72e-05 ± 1.3e-05	3.9e-05 ± 9.4e-06		
G43A C67G	0.00156 ± 0.00014	2110 ± 290	0.000321 ± 5.4e-05	0.000994 ± 0.00015	0.00126 ± 0.00013	2.87e-05 ± 6.8e-06	0.000114 ± 1.3e-05
G41A C71A	0.000272 ± 3.8e-05	645 ± 210	0.000125 ± 1.7e-05	0.000308 ± 5.6e-05	0.000248 ± 2.8e-05	2.7e-05 ± 8.9e-06	5.23e-05 ± 1.1e-05
U49A C50G C71U	1.88e-05 ± 4.4e-06						
A39C G40C	0.000145 ± 1.6e-06	1590 ± 47	4.2e-05 ± 9e-06	8.75e-05 ± 1.8e-05	0.000126 ± 1.5e-05		
U30C U55G	0.00036 ± 1.6e-05	1480 ± 160	0.000105 ± 2.8e-05	0.000236 ± 4.5e-05	0.000307 ± 5.8e-05		
C50U C68A	3.06e-05 ± 9.8e-06		4.9e-05 ± 1.9e-05	3.28e-05 ± 1.5e-05			
A14U A48C	7.33e-05 ± 4.6e-06	2020 ± 420		3.85e-05 ± 9.5e-06	6.17e-05 ± 9.4e-06		
A15C C70A	6.11e-05 ± 1.2e-05		5.56e-05 ± 1.2e-05	9.56e-05 ± 1.5e-05	4.95e-05 ± 8.2e-06		3.37e-05 ± 1.6e-05

Variant	kcat [1] [s⁻¹]	KM [2] [µM]	self-cleavage kobs at 640 uM GlcN6P [3] [s⁻¹]	self-cleavage kobs at 2500 uM GlcN6P [4] [s⁻¹]	self-cleavage kobs at 10000 uM GlcN6P [5] [s⁻¹]	self-cleavage kobs at 40 uM GlcN6P [6] [s⁻¹]	self-cleavage kobs at 160 uM GlcN6P [7] [s⁻¹]
A6C C70G	1.09e-05 ± 2.1e-06						
U31C A42G	0.00894 ± 0.0011	2260 ± 400	0.00212 ± 0.00035	0.00407 ± 0.0011	0.00754 ± 0.0012	0.000166 ± 2.9e-05	0.000469 ± 0.00016
A36G C67A	< 1e-05						
G29C C71A	0.000154 ± 3.1e-05		0.000104 ± 1.9e-05	0.000119 ± 2.7e-05	0.000253 ± 7.8e-05		
G29C C71G	8.64e-05 ± 1.2e-05		3.96e-05 ± 1.4e-05	8.9e-05 ± 1.2e-05	8.49e-05 ± 1e-05		5.06e-05 ± 1.3e-05
U57G C71A	3.11e-05 ± 9.7e-06		4.65e-05 ± 1.5e-05	3.2e-05 ± 1.5e-05			
A15U C70G	7.6e-05 ± 6.8e-06	175 ± 85	5.16e-05 ± 7.6e-06	7.05e-05 ± 8.4e-06	8.19e-05 ± 9.8e-06		4.66e-05 ± 1.1e-05
A6C U56A	4.08e-05 ± 9.7e-06				3.34e-05 ± 7.8e-06		
U30A A33U	5.67e-05 ± 3.2e-06	4010 ± 660			4.04e-05 ± 8.7e-06	< 1e-05	< 1e-05
A39U A42C	0.000556 ± 3.1e-05	3030 ± 290	9.53e-05 ± 1.1e-05	0.000273 ± 3.6e-05	0.000419 ± 3.9e-05		2.58e-05 ± 7.6e-06
C50U U55G	4.41e-05 ± 2.5e-06	304 ± 130	2.74e-05 ± 1.4e-05	4.31e-05 ± 7.9e-06	4.07e-05 ± 6.8e-06		
C11A G40U	1.13e-05 ± 2e-06		< 1e-05				< 1e-05
C10U A52U C68G	0.000101 ± 4.6e-05			6.27e-05 ± 2.5e-05			
U45A U65C	0.00412 ± 0.0005	1770 ± 290	0.000994 ± 0.00014	0.00204 ± 0.00054	0.00374 ± 0.00047	9.95e-05 ± 1.1e-05	0.000318 ± 6.3e-05
A39U U47C	0.00869 ± 0.002	1870 ± 580	0.00198 ± 0.00032	0.00471 ± 0.00098	0.00934 ± 0.0026	0.000213 ± 4.3e-05	0.000748 ± 0.0002
A15G C58G	0.00042 ± 0.00013			8.41e-05 ± 1.3e-05	0.000197 ± 6.1e-05		
